# Reference: patent US20190077849A1
# Columns and labels:
# Assay in all cases: cell-based or functional assay
# [1] = molecular target: HIV-1 Env of TH966.8.SG3 pseudovirus (clade AE) (HIV-1)
# [2] = molecular target: HIV-1 Env of KER2008.12.SG3 pseudovirus (clade A) (HIV-1)
# [3] = molecular target: HIV-1 Env of ZM106.9.SG3 pseudovirus (clade C) (HIV-1)
# [4] = molecular target: HIV-1 Env of YU2.DG.SG3 pseudovirus (clade B) (HIV-1) (UniProt P35961)
# [5] = molecular target: HIV-1 Env of 6101.10.SG3 pseudovirus (clade B) (HIV-1)
# [6] = molecular target: HIV-1 Env of ZM215.8.SG3 pseudovirus (clade C) (HIV-1)
# [7] = molecular target: HIV-1 Env of 6095.V1.C10.SG3 pseudovirus (clade ACD) (HIV-1)
# [8] = molecular target: HIV-1 Env of PVO.04.SG3 pseudovirus (clade B) (HIV-1)
# [9] = molecular target: HIV-1 Env of CNE31.SG3 pseudovirus (clade C) (HIV-1)
# 10E8v4 S100cH (antibody), sequence (VH): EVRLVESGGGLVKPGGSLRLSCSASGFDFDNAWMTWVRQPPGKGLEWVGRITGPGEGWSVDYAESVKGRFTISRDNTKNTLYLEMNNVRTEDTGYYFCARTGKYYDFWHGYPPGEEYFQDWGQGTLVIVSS
# 10E8v4 S100cH (antibody), sequence (VL): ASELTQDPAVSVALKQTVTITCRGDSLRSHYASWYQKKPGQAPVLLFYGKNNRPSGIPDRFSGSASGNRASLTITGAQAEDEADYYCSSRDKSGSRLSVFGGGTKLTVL
# 10E8v4 S100cR (antibody), sequence (VH): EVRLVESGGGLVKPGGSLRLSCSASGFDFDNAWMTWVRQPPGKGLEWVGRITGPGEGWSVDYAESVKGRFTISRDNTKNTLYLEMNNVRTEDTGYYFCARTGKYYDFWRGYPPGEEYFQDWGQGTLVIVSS
# 10E8v4 S100cR (antibody), sequence (VL): as the sequence (VL) above
# 10E8v4 S100cF (antibody), sequence (VH): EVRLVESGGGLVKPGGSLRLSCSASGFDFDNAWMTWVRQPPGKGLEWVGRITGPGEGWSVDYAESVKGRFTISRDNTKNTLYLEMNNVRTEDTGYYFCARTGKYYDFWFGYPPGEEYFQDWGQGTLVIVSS
# 10E8v4 S100cF (antibody), sequence (VL): as the sequence (VL) above
Substance,"IC50, pseudovirus neutralization [1]","IC80, pseudovirus neutralization [1]","IC50, pseudovirus neutralization [2]","IC80, pseudovirus neutralization [2]","IC50, pseudovirus neutralization [3]","IC80, pseudovirus neutralization [3]","IC50, pseudovirus neutralization [4]","IC80, pseudovirus neutralization [4]","IC50, pseudovirus neutralization [5]","IC80, pseudovirus neutralization [5]","IC50, pseudovirus neutralization [6]","IC80, pseudovirus neutralization [6]","IC50, pseudovirus neutralization [7]","IC80, pseudovirus neutralization [7]","IC50, pseudovirus neutralization [8]","IC80, pseudovirus neutralization [8]","IC50, pseudovirus neutralization [9]","IC80, pseudovirus neutralization [9]"
10E8v4 S100cH (antibody),0.091 µg/mL,0.488 µg/mL,> 50 µg/mL,> 50 µg/mL,> 50 µg/mL,> 50 µg/mL,2.59 µg/mL,10.9 µg/mL,0.103 µg/mL,0.643 µg/mL,0.141 µg/mL,0.966 µg/mL,0.011 µg/mL,0.046 µg/mL,3.4 µg/mL,14 µg/mL,2.24 µg/mL,6.79 µg/mL
10E8v4 S100cF (antibody),0.002 µg/mL,0.017 µg/mL,> 50 µg/mL,> 50 µg/mL,> 50 µg/mL,> 50 µg/mL,0.073 µg/mL,0.482 µg/mL,0.001 µg/mL,0.008 µg/mL,0.003 µg/mL,0.02 µg/mL,0.001 µg/mL,0.001 µg/mL,0.147 µg/mL,0.696 µg/mL,0.097 µg/mL,0.306 µg/mL
10E8v4 S100cR (antibody),0.168 µg/mL,0.648 µg/mL,> 50 µg/mL,> 50 µg/mL,> 50 µg/mL,> 50 µg/mL,3.87 µg/mL,12 µg/mL,0.176 µg/mL,0.891 µg/mL,0.363 µg/mL,1.34 µg/mL,0.011 µg/mL,0.048 µg/mL,6.45 µg/mL,25 µg/mL,2.54 µg/mL,8.42 µg/mL
